{"source": "patent US6709814B1", "about": "“Peptides causing formation of compact structures” (Rigel Pharmaceuticals, Inc., priority 1998, dated 2004)", "molecules": {"B1": {"name": "EFLIVKA (peptide)", "peptide": "EFLIVKA", "notes": "Alanine scan analog of EFLIVKS (S7A)"}, "B2": {"name": "EFLAVKS (peptide)", "peptide": "EFLAVKS", "notes": "Alanine scan analog of EFLIVKS (I4A)"}, "B3": {"name": "EFLIVKS (peptide)", "peptide": "EFLIVKS-NH2", "notes": "also called EFLIVKS-amide; dimerizer"}, "B4": {"name": "EFLIAKS (peptide)", "peptide": "EFLIAKS", "notes": "Alanine scan analog of EFLIVKS (V5A)"}, "B5": {"name": "cyclic[CGTIVTMEYRIDRTRSFC] (peptide)", "peptide": "CGTIVTMEYRIDRTRSFC", "modifications": "disulfide 1-18"}, "B6": {"name": "EFLIVK-amide (peptide)", "peptide": "EFLIVK-NH2", "notes": "Truncated by-product of the EFLIVKS-amide synthesis; also called peak 5"}, "B7": {"name": "KFLIVKS (peptide)", "peptide": "KFLIVKS", "notes": "Analog of EFLIVKS with the N-terminal glu replaced by lys"}, "B8": {"name": "SKVILFE (peptide)", "peptide": "SKVILFE-NH2", "notes": "also called SKVILFE-amide; test peptide SKVILFE"}, "B9": {"name": "AFLIVKS (peptide)", "peptide": "AFLIVKS", "notes": "Alanine scan analog of EFLIVKS (E1A)"}, "B10": {"name": "EALIVKS (peptide)", "peptide": "EALIVKS", "notes": "Alanine scan analog of EFLIVKS (F2A)"}, "B11": {"name": "VSIKFEL (peptide)", "peptide": "VSIKFEL", "notes": "Peptide designed to form a short beta sheet"}, "B12": {"name": "EFAIVKS (peptide)", "peptide": "EFAIVKS", "notes": "Alanine scan analog of EFLIVKS (L3A)"}, "B13": {"name": "EFLIVAS (peptide)", "peptide": "EFLIVAS", "notes": "Alanine scan analog of EFLIVKS (K6A)"}}, "key": {"[1]": {"target": "T1, porcine pancreatic elastase (Sus scrofa, UniProt P00772)", "T1 construct": "purchased Sigma Chemical Co., St. Louis, Mo", "T1 sequence (P00772 27-266)": "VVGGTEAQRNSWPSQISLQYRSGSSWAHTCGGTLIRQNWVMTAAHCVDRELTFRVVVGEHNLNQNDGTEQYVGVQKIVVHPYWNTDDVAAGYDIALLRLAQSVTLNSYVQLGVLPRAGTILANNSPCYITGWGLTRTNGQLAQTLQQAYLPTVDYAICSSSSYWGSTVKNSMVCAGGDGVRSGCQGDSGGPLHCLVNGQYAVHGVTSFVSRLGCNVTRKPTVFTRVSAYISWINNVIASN", "test": "Inhibition of porcine pancreatic elastase (succinyl-ala-ala-ala-p-nitroanilide cleavage)", "assay_type": "biochemical", "conditions": "pH 7.88, 25 C", "protocol": "Inhibition by different peptide constructs was followed by preincubation of 10 μM peptide with elastase for 1-1.5 min. followed by addition of the substrate. Percent inhibition was calculated as [1−{assay slope(peptide+elastase)/assay slope(elastase alone)}]×100%."}, "[2]": {"target": "T1, porcine pancreatic elastase", "conditions": "Leatherbarrow and Salacinski; read-out: reported apparent inhibition constant (Ki) for elastase; cited from earlier work"}, "[3]": {"test": "Observation of peptide dimers by electrospray MS / LC-MS under harsh conditions", "assay_type": "binding", "conditions": "electrospray ion trap, infusion at pH 6.4 or C18 elution at ~pH 2.5 in acetonitrile", "source_text": "The peptide also forms dimers (also detected by mass spectrometry) when eluted off a C18 reversed phase column at pH ˜2.5 in ca. 25% acetonitrile (FIG. 3B).\nLC/MS examination of the crude synthesis products from an all-single coupled fmoc synthesis of EFLIVKS-amide, for shorter sequences which can dimerize after electrospray ionization is shown in FIG. 4. HPLC elution was with a gradient of 99.9% water-0.1% TFA to 99.9% acetonitrile-0.1% TFA. Dimers of the following truncated sequences were detected by mass spectrometry with the percent acetonitrile in parentheses, all at ˜pH 2.5: peak 1, […] (23.5%), monomer m/z=705.3, dimer m/z=1409.3; peak 4: EFLIVKS-amide (25%), monomer m/z=834.4, dimer m/z=1667.3; and peak 5, EFLIVK-amide (32%), monomer m/z=747.4, dimer m/z=1493.1."}, "[4]": {"test": "Solubility of peptide constructs", "assay_type": "physicochemical"}, "[5]": {"conditions": "cited from earlier work; for concentration at which dimers form / do not dissociate: aqueous solution, physiological conditions; for dimer formation of HA fragments: compared with HA"}, "[6]": {"target": "the molecule itself", "test": "self-dimerization, electrospray mass spectrometry, relative dimer ion current against peptide concentration, pH 5.0"}, "[7]": {"target": "the molecule itself", "test": "self-dimerization, electrospray mass spectrometry, alanine scan"}, "[8]": {"target": "porcine pancreatic elastase (porcine, UniProt P00772 27-266)", "sequence (P00772 27-266 limits assumed)": "as the sequence (P00772 27-266) above", "test": "cell-based or functional assay"}, "[9]": {"target": "the molecule itself", "test": "LC/MS, C18 reversed phase elution at ~pH 2.5, electrospray"}}, "note": "Bridge positions count the residues as written; N and C are the ends. Square brackets hold non-standard residues; d marks the D form. Ends that are not written are not given here. Peptide text beside a SMILES is read from it. pGlu = O=C1CC[C@@H](C(=O)O)N1"}
{"molecule": "O=S(=O)(F)Cc1ccccc1", "note": "[PMSF]", "values": [{"measurement": "inhibition of porcine pancreatic elastase", "setting": "[1]; 2 mM PMSF", "result": 100, "unit": "%"}]}
{"molecule": "CC[C@H](C)[C@@H]1NC(=O)[C@H](CCCNC(=N)N)NC(=O)[C@H](Cc2ccc(O)cc2)NC(=O)[C@H](CCC(=O)O)NC(=O)[C@H](CCSC)NC(=O)[C@H]([C@@H](C)O)NC(=O)[C@H](C(C)C)NC(=O)[C@H]([C@@H](C)CC)NC(=O)[C@H]([C@@H](C)O)NC(=O)CNC(=O)[C@@H](N)CSSC[C@@H](C(=O)O)NC(=O)[C@H](Cc2ccccc2)NC(=O)[C@H](CO)NC(=O)[C@H](CCCNC(=N)N)NC(=O)[C@H]([C@@H](C)O)NC(=O)[C@H](CCCNC(=N)N)NC(=O)[C@H](CC(=O)O)NC1=O", "note": "[cyclic[CGTIVTMEYRIDRTRSFC]] (H-CGTIVTMEYRIDRTRSFC-OH; disulfide 1-18)", "values": [{"measurement": "inhibition of porcine pancreatic elastase", "setting": "[1]; 500 nM peptide, 100 μM succ-ala-ala-ala-p-nitroanilide", "result": 6.2, "unit": "%"}, {"measurement": "Ki", "setting": "[2]", "result": 0.00039, "unit": "µM"}]}
{"molecule": "EFLIVK-amide (EFLIVK-NH2)", "values": [{"measurement": "dimer detected by mass spectrometry", "setting": "[3]", "result": "Dimers"}]}
{"molecule": "EFLIVKS", "values": [{"measurement": "dimer detected by mass spectrometry", "setting": "[3]; listed as EFLIVKS-amide", "result": "self-associate to form dimers"}]}
{"molecule": "EFLIVKSSTKSIPPQSEFLIVKS [EFLIVKS-STKSIPPQS-EFLIVKS]", "values": [{"measurement": "solubility", "setting": "[4]", "result": "quite soluble at low pH"}]}
{"molecule": "LIVKS-amide", "values": [{"measurement": "dimer detected by mass spectrometry", "setting": "[3]", "result": "Dimers"}]}
{"molecule": "SKVILFE", "values": [{"measurement": "concentration at which dimers form / do not dissociate", "setting": "[5]", "result": "~10^−13 M"}]}
{"molecule": "VSIKFEL [peptide designed to form a short beta sheet]", "values": [{"measurement": "dimer detected by mass spectrometry", "setting": "[3]", "result": "dimeric form of the peptide"}]}
{"molecule": "[pGlu]PPGGSK", "values": [{"measurement": "dimer formation of HA fragments", "setting": "[5]", "result": "did not lead to dimer formation"}]}
{"molecule": "[pGlu]PPGGSKVILF [HA]", "values": [{"measurement": "concentration at which dimers form / do not dissociate", "setting": "[5]", "result": "≤ 10^−13 M"}]}
{"molecule": "pSKVILF", "values": [{"measurement": "dimer formation of HA fragments", "setting": "[5]", "result": "dimerized more efficiently"}]}
{"molecule": "pVILF", "values": [{"measurement": "dimer formation of HA fragments", "setting": "[5]", "result": "did not lead to dimer formation"}]}
{"molecule": "B1", "values": [{"measurement": "Kd", "setting": "[6]", "result": 9.9, "unit": "µM"}]}
{"molecule": "B2", "values": [{"measurement": "fold weakening of self-binding against EFLIVKS", "setting": "[7]", "result": 5.4, "unit": "fold"}, {"measurement": "Kd", "setting": "[6]", "result": 42, "unit": "µM"}]}
{"molecule": "B3", "values": [{"measurement": "Kd", "setting": "[6]", "result": 7.8, "unit": "µM"}]}
{"molecule": "B4", "values": [{"measurement": "fold weakening of self-binding against EFLIVKS", "setting": "[7]", "result": 10, "unit": "fold"}, {"measurement": "Kd", "setting": "[6]", "result": 82, "unit": "µM"}]}
{"molecule": "B5", "values": [{"measurement": "inhibition (% inhibition of elastase cleavage of succ-ala-ala-ala-p-nitroanilide)", "setting": "[8]", "result": 6.2, "unit": "%"}]}
{"molecule": "B6", "values": [{"measurement": "binding result", "setting": "[9]", "result": "binds"}]}
{"molecule": "B7", "values": [{"measurement": "Kd", "setting": "[6]", "result": 6.8, "unit": "µM"}]}
{"molecule": "B8", "values": [{"measurement": "Kd", "setting": "[6]", "result": 12, "unit": "µM"}]}
{"molecule": "B9", "values": [{"measurement": "Kd", "setting": "[6]", "result": 12, "unit": "µM"}]}
{"molecule": "B10", "values": [{"measurement": "fold weakening of self-binding against EFLIVKS", "setting": "[7]", "result": 5.4, "unit": "fold"}, {"measurement": "Kd", "setting": "[6]", "result": 42, "unit": "µM"}]}
{"molecule": "B11", "values": [{"measurement": "Kd", "setting": "[6]", "result": 13, "unit": "µM"}]}
{"molecule": "B12", "values": [{"measurement": "fold weakening of self-binding against EFLIVKS", "setting": "[7]", "result": 9.7, "unit": "fold"}, {"measurement": "Kd", "setting": "[6]", "result": 76, "unit": "µM"}]}
{"molecule": "B13", "values": [{"measurement": "fold weakening of self-binding against EFLIVKS", "setting": "[7]", "result": 6, "unit": "fold"}, {"measurement": "Kd", "setting": "[6]", "result": "> 50", "unit": "µM"}]}
